Test results as given in patent US20220306715A1 (SHATTUCK LABS, published 2022).

Molecular target: IL-6
Assay: cell-based or functional assay

Chain of IL-6 (P05231 30-212): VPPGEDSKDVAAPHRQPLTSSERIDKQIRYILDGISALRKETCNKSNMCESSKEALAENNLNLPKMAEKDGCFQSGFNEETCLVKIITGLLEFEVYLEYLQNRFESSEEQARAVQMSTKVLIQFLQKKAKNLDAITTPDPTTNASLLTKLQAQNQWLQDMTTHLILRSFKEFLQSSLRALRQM

B1: human IL-6R-Fc-IL-35 chimeric protein (Fc fusion)
chain 1: ELLDPCGYISPESPVVQLHSNFTAVCVLKEKCMDYFHVNANYIVWKTNHFTIPKEQYTIINRTASSVTFTDIASLNIQLTCNILTFGQLEQNVYGITIISGLPPEKPKNLSCIVNEGKKMRCEWDGGRETHLETNFTLKSEWATHKFADCKAKRDTPTSCTVDYSTVYFVNIEVWVEAENALGKVTSDHINFDPVYKVKPNPPHNLSVINSEELSSILKLTWTNPSIKSVIILKYNIQYRTKDASTWSQIPPEDTASTRSSFTVQDLKPFTEYVFRIRCMKEDGKGYWSDWSEEASGITYEDRPSKAPSFWYKIDPSHTQGYRTVQLVWKTLPPFEANGKILDYEVTLTRWKSHLQNYTVNATKLTVNLTNDRYLATLTVRNLVGKSDAAVLTIPACDFQATHPVMDLKAFPKDNMLWVEWTTPRESVKKYILEWCVLSDKAPCITDWQQEDGTVHRTYLRGNLAESKCYLITVTPVYADGPGSPESIKAYLKQAPPSKGPTVRTKKVGKNEAVLEWDQLPVDVQNGFIRNYTIFYRTIIGNETAVNVDSSHTEYTLSSLTSDTLYMVRMAAYTDEGGKDGPEFTFTTPKFAQGEIEGSGSRKGGKRGSKYGPPCPPCPAPEFLGGPSVFLFPPKPKDQLMISRTPEVTCVVVDVSQEDPEVQFNWYVDGVEVHNAKTKPREEQFNSTYRVVSVLTVLHQDWLSGKEYKCKVSSKGLPSSIEKTISNATGQPREPQVYTLPPSQEEMTKNQVSLTCLVKGFYPSDIAVEWESNGQPENNYKTTPPVLDSDGSFFLYSRLTVDKSRWQEGNVFSCSVLHEALHNHYTQKSLSLSLGKDEGGEDGSGSRNLPVATPDPGMFPCLHHSQNLLRAVSNMLQKARQTLEFYPCTSEEIDHEDITKDKTSTVEACLPLELTKNESCLNSRETSFITNGSCLASRKTSFMMALCLSSIYEDLKMYQVEFKTMNAKLLMDPKRQIFLDQNMLAVIDELMQALNFNSETVPQKSSLEEPDFYKTKIKLCILLHAFRIRAVTIDRVMSYLNAS
chain 2: LAPRRCPAQEVARGVLTSLPGDSVTLTCPGVEPEDNATVHWVLRKPAAGSHPSRWAGMGRRLLLRSVQLHDSGNYSCYRAGRPAGTVHLLVDVPPEEPQLSCFRKSPLSNVVCEWGPRSTPSLTTKAVLLVRKFQNSPAEDFQEPCQYSQESQKFSCQLAVPEGDSSFYIVSMCVASSVGSKFSKTQTFQGCGILQPDPPANITVTAVARNPRWLSVTWQDPHSWNSSFYRLRFELRYRAERSKTFTTWMVKDLQHHCVIHDAWSGLRHVVQLRAQEEFGQGEWSEWSPEAMGTPWTESRSPPAENEVSTPMQALTTNKDDDNILFRDSANATSLPVQDSSSVPLPGSGSDEGGEDGSKYGPPCPPCPAPEFLGGPSVFLFPPKPKDQLMISRTPEVTCVVVDVSQEDPEVQFNWYVDGVEVHNAKTKPREEQFNSTYRVVSVLTVLHQDWLSGKEYKCKVSSKGLPSSIEKTISNATGQPREPQVYTLPPSQEEMTKNQVSLTCLVKGFYPSDIAVEWESNGQPENNYKTTPPVLDSDGSFFLYSRLTVDKSRWQEGNVFSCSVLHEALHNHYTQKSLSLSLGKRKGGKRGSGSRKGPPAALTLPRVQCRASRYPIAVDCSWTLPPAPNSTSPVSFIATYRLGMAARGHSWPCLQQTPTSTSCTITDVQLFSMAPYVLNVTAVHPWGSSSSFVPFITEHIIKPDPPEGVRLSPLAERQLQVQWEPPGSWPFPEIFSLKYWIRYKRQGAARFHRVGPIEATSFILRAVRPRARYYVQVAAQDLTDYGELSDWSLPATATMSLGK
EC50 of induction of apoptosis in IL-6 dependent DS-1 cells cultured 24 hours with IL-6 (caspase 3/7 luciferase assay): 14.1 nM
